Where no end group is shown, it is not given here.
T1: mouse-derived galanin receptor protein (mouse pancreatic β-cell line MIN6-derived, encoded by pMGR20) (mouse, UniProt P56479 1-348)
T1 construct: also called mouse galanin receptor; MIN6-derived galanin receptor protein
T1 sequence: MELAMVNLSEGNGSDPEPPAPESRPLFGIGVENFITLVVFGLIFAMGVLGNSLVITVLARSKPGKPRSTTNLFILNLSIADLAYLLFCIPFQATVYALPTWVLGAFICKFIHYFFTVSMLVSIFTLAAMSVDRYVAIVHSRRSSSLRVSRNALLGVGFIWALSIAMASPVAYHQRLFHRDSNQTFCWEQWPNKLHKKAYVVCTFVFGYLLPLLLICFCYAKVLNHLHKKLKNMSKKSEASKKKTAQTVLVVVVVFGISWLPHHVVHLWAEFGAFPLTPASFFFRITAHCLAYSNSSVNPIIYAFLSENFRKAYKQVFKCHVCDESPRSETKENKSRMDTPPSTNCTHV


Legend:
[1] = biological target: mouse-derived galanin receptor protein (mouse pancreatic β-cell line MIN6-derived, encoded by pMGR20) (mouse) (UniProt P56479); assay: competition with [125I] porcine galanin on MIN6 cell membrane fractions, 25 C 75 min, filtration
[2] = biological target: mouse-derived galanin receptor protein (mouse pancreatic β-cell line MIN6-derived, encoded by pMGR20) (mouse) (UniProt P56479); assay: competition with porcine [125I] galanin on membranes of CHO cells expressing the mouse galanin receptor
[3] = biological target: mouse-derived galanin receptor protein (mouse pancreatic β-cell line MIN6-derived, encoded by pMGR20) (mouse) (UniProt P56479); assay: competition with 100 pM porcine [125I] galanin on membranes of CHO cells expressing the mouse galanin receptor, 25 C 75 min
[4] = biological target: T1, mouse-derived galanin receptor protein …; assay: competition with [125I] porcine galanin on MIN6 cell membrane fractions, 25 C 75 min, filtration
Protocol: The MIN6 cell membrane fractions prepared by the method of the above-mentioned (1) were diluted with a buffer for the receptor binding experiment (containing 20 mM of Tris, 1 mM of EDTA, 0.03% of NaN , 0.1% of BSA, 0.05% of CHAPS, 0.5 mM of PMSF, 10 μg/ml of pepstatin, 20 μg/ml of leupeptin and 4 μg/ml of E-64; pH: 7.4) to make the membrane protein concentration 50 μg/ml.
The mixture was allowed to stand in a water bath of 25° C. for 75 minutes to promote the receptor binding reaction. Thereafter, 1.5 ml of an ice-cooled buffer for the binding experiment was added to the reaction solution for quenching the binding reaction and filtered with a glass fiber filter (GF/F, manufactured by Whatman) immediately whereupon the membrane fractions were collected on the filter paper. Then the filter paper was washed with 1.5 ml of the same buffer and the amount of the radioisotope in the filter paper was determined by a gamma-ray detector.

[5] = biological target: T1, mouse-derived galanin receptor protein …; assay: competition with porcine [125I] galanin on membranes of CHO cells expressing the mouse galanin receptor
Protocol: (§1) Membrane fractions (1 μg of protein) were incubated with the ligands for 75 min at 25° C. […] Each symbol represents the mean value±S.E.M. of the triplicate assays.

[6] = biological target: T1, mouse-derived galanin receptor protein …; assay: competition with 100 pM porcine [125I] galanin on membranes of CHO cells expressing the mouse galanin receptor, 25 C 75 min
Protocol: as §1

[7] = biological target: T1, mouse-derived galanin receptor protein …; assay: saturation binding and Scatchard plot analysis on membrane fractions of CHO cells transformed with mouse galanin receptor cDNA, 25 C 75 min, filtration
From the text: (§2) The results shown are from one representative experiment performed in triplicate assays.
as §2

Row | Molecule | IC50 [4] [nM] | Ki [5] [nM] | IC50 [6] [nM] | other results
1 | galanin antagonist (galantide) (peptide) |  |  |  | IC50 [1]: 0.69 nM
2 | M15 (galanin receptor antagonist) (peptide) |  |  |  | Ki [2]: 0.23 nM; IC50 [3]: 0.83 nM
3 | GWTLNSAGYLLGPHAI (The range 1-16 counts on the mature peptide, not on the precursor) [galanin (1-16) partial peptide] | 3.3 | 1 | 3.6 | 
4 | GWTLNSAGYLLGPHAIDNHRSFHDKYGLA (peptide, UniProt P07480 33-61, looked up, ends and bridges not checked; also: [125I] radioisotope label (residue not given here), mature; also called labeled galanin) [porcine [125I] galanin] |  |  |  | Kd [7]: 0.045 nM
5 | GWTLNSAGYLLGPHAIDNHRSFHDKYGLA (peptide, UniProt P07480 33-61, looked up, ends and bridges not checked, mature; The assay used the 29-residue peptide; also called standard porcine galanin; galanin (porcine)) [porcine galanin (unlabeled)] | 0.12 | 0.072 |  | 
6 | GWTLNSAGYLLGPHAVGNHRSFSDKNGLTS (peptide, UniProt P22466 33-62, looked up, mature; The assay used the galanin peptide) [human galanin (unlabeled)] |  | 0.12 | 0.43 | 

Reference: patent publication US20030008329A1 (Takeda / Millennium, published 2003)
